# T1: DR6 receptor (Homo sapiens, UniProt O75509)
# T1 construct: expressed in transfected cells; host or cells: COS-1
# T1 sequence (O75509 42-655): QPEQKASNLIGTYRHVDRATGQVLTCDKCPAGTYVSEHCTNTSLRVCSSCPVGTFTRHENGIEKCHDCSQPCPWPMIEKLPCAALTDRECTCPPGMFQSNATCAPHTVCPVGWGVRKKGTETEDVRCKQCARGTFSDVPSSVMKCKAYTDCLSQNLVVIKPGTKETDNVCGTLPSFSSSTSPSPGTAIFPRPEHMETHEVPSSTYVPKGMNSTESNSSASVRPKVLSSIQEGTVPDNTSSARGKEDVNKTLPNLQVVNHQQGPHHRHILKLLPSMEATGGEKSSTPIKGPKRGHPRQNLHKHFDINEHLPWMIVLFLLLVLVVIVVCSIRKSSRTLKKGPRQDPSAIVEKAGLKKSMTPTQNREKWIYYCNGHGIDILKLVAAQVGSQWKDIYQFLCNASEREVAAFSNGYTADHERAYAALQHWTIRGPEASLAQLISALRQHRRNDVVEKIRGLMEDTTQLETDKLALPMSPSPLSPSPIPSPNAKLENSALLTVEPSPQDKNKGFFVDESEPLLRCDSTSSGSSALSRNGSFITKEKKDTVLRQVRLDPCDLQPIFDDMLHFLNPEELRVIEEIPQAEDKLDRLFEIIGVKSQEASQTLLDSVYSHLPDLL
# T2: p75NTR (Homo sapiens, UniProt P08138)
# T2 construct: expressed in transfected cells; host or cells: COS-1
# T2 sequence (P08138 29-427): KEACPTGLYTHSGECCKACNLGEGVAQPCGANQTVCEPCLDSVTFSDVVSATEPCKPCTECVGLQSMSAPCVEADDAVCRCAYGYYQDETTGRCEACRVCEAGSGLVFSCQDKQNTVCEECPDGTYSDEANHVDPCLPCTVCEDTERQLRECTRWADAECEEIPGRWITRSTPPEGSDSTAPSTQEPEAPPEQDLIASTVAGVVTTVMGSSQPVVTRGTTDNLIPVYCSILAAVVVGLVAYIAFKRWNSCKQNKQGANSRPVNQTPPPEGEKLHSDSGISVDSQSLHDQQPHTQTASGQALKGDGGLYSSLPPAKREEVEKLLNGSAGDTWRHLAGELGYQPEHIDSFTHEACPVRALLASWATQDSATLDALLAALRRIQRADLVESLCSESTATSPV
# B1: DR6-AP: mouse DR6 ectodomain fused to human placental alkaline phosphatase (protein)
# chain: QPEQKTLSLPGTYRHVDRTTGQVLTCDKCPAGTYVSEHCTNMSLRVCSSCPAGTFTRHENGIERCHDCSQPCPWPMIERLPCAALTDRECICPPGMYQSNGTCAPHTVCPVGWGVRKKGTENEDVRCKQCARGTFSDVPSSVMKCKAHTDCLGQNLEVVKPGTKETDNVCGMRLFFSSTNPPSSGTVTFSHPEHMESHDVPSSTYEPQGMNSTDSNSTASVRTKVPSGIEEGTVPDNTSSTSGKEGTNRTLPNPPQVTHQQAPHHRHILKLLPSSMEATGEKSSTAIKAPKRGHPRQNAHKHFDINEH
# modifications: left off: large carriers
# notes: mouse DR6 ectodomain fused to human placental alkaline phosphatase
# How the values were obtained:
# Assay in all cases: Cell-based AP binding assay on transfected COS-1 cells
# [1] = target: T1, DR6 receptor; settings: same conditions as APP
# Procedure: (§1) The materials and methods used to generate the data shown in this figure are as follows. To test whether APP directly interacts with DR6 extracellular domain, a cell-based A binding assay was carried out (FIG. 14B). To generate DR6 ectodomain-A fusion protein (DR6-AP), COS-1 cells cultured in DMEM/10% FBS (Gibco) medium were transfected with 15 microgram of DR6-AP fusion expression construct using FuGene transfection reagent (Roche) according to the manufacturer protocol. Twelve hours post-transfection, COS-1 cell medium was changed to OPTI-MEM (Invitrogen). Forty-eight hours post-transfection, COS-1 cell conditioned medium containing DR6-AP proteins was collected and filtered. The amount of DR6-AP proteins in the medium was quantified according to the following procedure. 100 microliters of 2×AP buffer (prepared by adding 100 mg Para-nitrophenyl phosphate (Sigma) and 15 microliter of 1M MgCl2 to 15 ml 2M diethanolamine pH 9.8) was mixed with equal volume of transfected COS cell conditioned medium or control conditioned medium from untransfected COS-1 cells. The color of the reaction was developed over 12-15 minutes, with the O.D. being in the linear range (0.1-1). The volume of reaction was then adjusted by adding 800 microliters of distilled water and the O.D. was measured at 405 nm absorbance wavelength. The concentration in nM was calculated according to the formula (for 100 microliter): C (nM)=O.D.×100×(60/developing time)/30. For the APP AP binding assay, COS-1 cells cultured in DMEM/10% FBS (Gibco) medium in 6-well culture dishes were transfected with 2 microgram of APP expressing vector per well using FuGene transfection reagent (Roche) according to the manufacturer protocol. Two days post-transfection, cells were washed twice with the binding buffer (HBSS, Gibco Cat. No. 14175-095, with 0.2% BSA, 0.1% NaN3, 5 mM CaCl2, 1 mM MgCl2, 20 mM HEPES, pH=7.0). […]
# [2] = target: T2, p75NTR; settings: same conditions as APP
# Procedure: as §1
# [3] = target: T3, APP (Homo sapiens, UniProt P05067); settings: DR6-AP conditioned medium 1:1 with binding buffer, 90 minutes
# T3 construct: expressed in transfected cells; host or cells: COS-1
# Procedure: as §1
# T3 sequence (P05067 18-770): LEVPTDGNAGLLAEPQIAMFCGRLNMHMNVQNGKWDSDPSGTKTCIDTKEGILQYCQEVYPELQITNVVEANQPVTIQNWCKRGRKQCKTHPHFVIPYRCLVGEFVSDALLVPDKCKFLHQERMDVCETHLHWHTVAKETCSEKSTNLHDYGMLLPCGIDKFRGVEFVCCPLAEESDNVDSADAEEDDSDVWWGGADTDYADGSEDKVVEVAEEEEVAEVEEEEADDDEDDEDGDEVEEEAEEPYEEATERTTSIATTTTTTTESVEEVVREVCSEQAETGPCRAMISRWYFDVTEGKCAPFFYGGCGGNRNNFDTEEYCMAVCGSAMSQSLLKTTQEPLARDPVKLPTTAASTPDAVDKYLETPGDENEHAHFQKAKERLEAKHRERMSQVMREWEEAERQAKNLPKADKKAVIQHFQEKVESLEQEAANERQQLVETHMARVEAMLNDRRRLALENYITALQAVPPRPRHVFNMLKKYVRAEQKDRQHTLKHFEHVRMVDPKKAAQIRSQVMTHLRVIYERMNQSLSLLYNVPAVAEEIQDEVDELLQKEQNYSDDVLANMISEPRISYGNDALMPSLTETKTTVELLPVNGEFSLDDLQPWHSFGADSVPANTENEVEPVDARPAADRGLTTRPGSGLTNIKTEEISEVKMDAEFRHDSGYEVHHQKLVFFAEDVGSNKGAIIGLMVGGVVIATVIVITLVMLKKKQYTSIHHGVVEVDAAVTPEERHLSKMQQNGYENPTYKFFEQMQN
molecule,measurement,setting,value
B1,binding of DR6 ectodomain-AP to DR6 receptor expressing cells,[1],does NOT bind
same,binding of DR6 ectodomain-AP to p75NTR expressing cells,[2],does NOT bind
same,binding of DR6 ectodomain-AP to APP expressing COS cells,[3],binds APP expressed by cultured cells

# Reference: patent US20110223630A1, “METHOD FOR SCREENING FOR COMPOUNDS THAT INHIBIT NEURODEGENERATION” (priority 2008, published 2011)
